These results are taken from PMC12533970, “Highly accurate protein structure prediction-based virtual docking pipeline accelerating the identification of anti-schistosomal compounds”.

Among the targets are SmU2AF65 Mutant 1 (Schistosoma mansoni, UniProt C4Q2F6 1-521, L255A;R270A;Q284A;V289A); SmU2AF65 Mutant 2 (Schistosoma mansoni, UniProt C4Q2F6 1-521, L255A;R270E;Q284R;V289A); SmU2AF65 (Schistosoma mansoni, UniProt C4Q2F6 1-521).
What all share (assay): EMSA; EMSA: 0.5 pmol FAM-RNA (heated 70 C 5 min, cooled on ice) with 1 ug WT or 2 ug mutant protein in 10 uL Beyotime reaction buffer (composition, salt and pH not stated), 20 min at room temperature; competitor 200 pmol unlabeled RNA; 6% native PAGE in 1x TBE pH 8.3
What all share (conditions): protein: recombinant; tags: His+SUMO, cleaved with ULP1; single strand
On the technique in general: In EMSA bound probe runs differently from free probe, usually more slowly.

Turning to UACAUAAAUUAAUAAGUAUUUUUACUUUUUUUUAUUUUCAAUUUCAACAG (ssRNA) [50-nt intron 3' region consensus RNA], the results for the binding result in the series with SmU2AF65 Mutant 1, with SmU2AF65 Mutant 2 and with SmU2AF65 were “binds”, “no binding” and “binds”, respectively.
